# Target: vitreal Sema3A of STZ-treated diabetic mice (endogenous mouse Semaphorin3A) (mouse) (UniProt O08665)
# Assay: cell-based or functional assay
# Chain of UniProt O08665 (O08665 21-772 limits assumed): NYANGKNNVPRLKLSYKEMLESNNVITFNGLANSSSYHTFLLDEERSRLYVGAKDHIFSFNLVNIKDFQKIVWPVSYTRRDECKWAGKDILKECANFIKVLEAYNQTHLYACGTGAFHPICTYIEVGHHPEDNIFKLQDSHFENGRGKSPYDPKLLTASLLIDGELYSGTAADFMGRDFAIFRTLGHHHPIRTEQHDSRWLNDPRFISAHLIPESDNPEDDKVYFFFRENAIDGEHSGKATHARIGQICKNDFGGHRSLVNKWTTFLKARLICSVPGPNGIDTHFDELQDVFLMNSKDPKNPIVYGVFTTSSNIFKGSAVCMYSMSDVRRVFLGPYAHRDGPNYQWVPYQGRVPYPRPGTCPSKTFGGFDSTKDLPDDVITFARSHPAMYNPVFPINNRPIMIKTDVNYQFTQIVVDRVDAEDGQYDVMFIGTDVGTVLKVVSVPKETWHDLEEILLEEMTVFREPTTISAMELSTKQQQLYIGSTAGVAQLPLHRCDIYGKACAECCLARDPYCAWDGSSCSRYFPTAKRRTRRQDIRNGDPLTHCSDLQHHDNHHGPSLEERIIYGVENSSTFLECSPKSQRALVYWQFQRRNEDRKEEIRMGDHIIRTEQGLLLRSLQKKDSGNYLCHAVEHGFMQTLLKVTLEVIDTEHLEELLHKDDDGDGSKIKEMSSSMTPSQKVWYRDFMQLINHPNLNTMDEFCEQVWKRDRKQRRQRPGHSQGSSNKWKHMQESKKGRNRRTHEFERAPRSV
substance,measurement,value
recombinant mouse soluble Neuropilin-1 (rmNRP1) (from UniProt P97333 22-856) (receptor),"reduction in retinal permeability (Evans Blue permeation) at week 8 of diabetes, after intravitreal injection of rNrp-1 in STZ mice at weeks 6 and 7",48.1%

# Reference: patent US20180030455A1
